Reference: the RNAGym collection of RNA variant scans (doi:10.7554/elife.90254)

B1: LINE1-mini (parent)
chain: GGCAGAGCUCAACACAGCGUGGCAAAGUGGCUGUGGCUAGACUGCC

Variants of: B1
Test: self-cleavage, relative activity (ratio to wild type); higher = more cleavage; in vitro, sequencing; the parent is a self-cleaving ribozyme

Compared with GGCAGAGCUCAACACAGCGCGGCAAAUUGGCUGUGGCUAGACUGCC [U20C G27U], GGCAGAGCUCAACACAGCGCGGCAAACUGGCUGUGGCUAGACUGCC [U20C G27C] is lower in self-cleavage: 0.31 for the first, 0.28 for the second.

First: GGCAGAGCUCAACACAGCGCGGCAAAAUGGCUGUGGCUAGACUGCC [U20C G27A]
Second: GGCAGAGCUCAACACAGCGCGGCAAAGUCGCUGUGGCUAGACUGCC [U20C G29C]
The self-cleavage of the first is higher: 0.78 for the first, 0.31 for the second.

First: GGCAGAGCUCAACACAGCGCGGCAAAGUAGCUGUGGCUAGACUGCC [U20C G29A]
Second: GGCAGAGCUCAACACAGCGCGGCAAAGUUGCUGUGGCUAGACUGCC [U20C G29U]
The self-cleavage of the first is higher: 0.55 for the first, 0.4 for the second.

Compared with GGCAGAGCUCAACACAGCGAGGCAAAGUGGCUGCGGCUAGACUGCC [U20A U34C], GGCAGAGCUCAACACAGCGAGGCAAAGUGGCUGAGGCUAGACUGCC [U20A U34A] is lower in self-cleavage: 0.27 for the first, 0.08 for the second.

Going from GGCAGAGCUCAACACAGCGAGGCAAAGUGGCUGGGGCUAGACUGCC [U20A U34G] to GGCAGAGCUCAACACAGCGCGCCAAAGUGGCUGUGGCUAGACUGCC [U20C G22C], the self-cleavage falls from 0.25 to 0.19.

First: GGCAGAGCUCAACACAGCGCGACAAAGUGGCUGUGGCUAGACUGCC [U20C G22A]
Second: GGCAGAGCUCAACACAGCGCGUCAAAGUGGCUGUGGCUAGACUGCC [U20C G22U]
The self-cleavage of the first is higher: 0.77 for the first, 0.4 for the second.

Going from GGCAGAGCUCAACACAGCGCGGCAAAGUGGCUGUGGCUAGAUUGCC [U20C C42U] to GGCAGAGCUCAACACAGCGCGGCAAAGUGGCUGUGGCUAGAAUGCC [U20C C42A], the self-cleavage falls from 0.31 to 0.04.

Going from GGCAGAGCUCAACACAGCGCGGCAAAGUGGCUGUGGCUAGAGUGCC [U20C C42G] to GGCAGAGCUCAACACAGCGCGGCAAAGUGGCUGUGGCUAGACUACC [U20C G44A], the self-cleavage rises from 0.04 to 0.12.

First: GGCAGAGCUCAACACAGCGCGGCAAAGUGGCUGUGGCUAGACUUCC [U20C G44U]
Second: GGCAGAGCUCAACACAGCGCGGCAAAGUGGCUGUGGCUAGACUCCC [U20C G44C]
The self-cleavage of the first is higher: 0.14 for the first, 0.09 for the second.

First: GGCAGAGCUCAACACAGCGCGGCAAAGUGGCUGUGGCUAGACGGCC [U20C U43G]
Second: GGCAGAGCUCAACACAGCGCGGCAAAGUGGCUGUGGCUAGACCGCC [U20C U43C]
The self-cleavage of the first is lower: 0.01 for the first, 0.09 for the second.

Going from GGCAGAGCUCAACACAGCGCGGCAAAGUGGCUGUGGCUAGACAGCC [U20C U43A] to GGCAGAGCUCAACACAGCGCGGCAAAGUGGCUGUGGCUCGACUGCC [U20C A39C], the self-cleavage rises from 0.05 to 0.2.

Compared with GGCAGAGCUCAACACAGCGCGGCAAAGUGGCUGUGGCUUGACUGCC [U20C A39U], GGCAGAGCUCAACACAGCGCGGCAAAGUGGCUGUGGCUGGACUGCC [U20C A39G] is lower in self-cleavage: 0.37 for the first, 0.06 for the second.

Going from GGCAGAGCUCAACACAGCGCGGCAAAGUGGCUGUUGCUAGACUGCC [U20C G35U] to GGCAGAGCUCAACACAGCGCGGCAAAGUGGCUGUCGCUAGACUGCC [U20C G35C], the self-cleavage falls from 0.1 to 0.03.

First: GGCAGAGCUCAACACAGCGCGGCAAAGUGGCUGUAGCUAGACUGCC [U20C G35A]
Second: GGCAGAGCUCAACACAGCGCGGCAAAGUGACUGUGGCUAGACUGCC [U20C G30A]
The self-cleavage of the first is lower: 0.1 for the first, 0.45 for the second.

Compared with GGCAGAGCUCAACACAGCGCGGCAAAGUGUCUGUGGCUAGACUGCC [U20C G30U], GGCAGAGCUCAACACAGCGCGGCAAAGUGCCUGUGGCUAGACUGCC [U20C G30C] is higher in self-cleavage: 0.41 for the first, 0.98 for the second.

Compared with GGCAGAGCUCAACACAGCGAGGCAAAGUGGCUGUGGCGAGACUGCC [U20A U38G], GGCAGAGCUCAACACAGCGAGGCAAAGUGGCUGUGGCCAGACUGCC [U20A U38C] is higher in self-cleavage: 0.02 for the first, 0.41 for the second.

Going from GGCAGAGCUCAACACAGCGAGGCAAAGUGGCUGUGGCAAGACUGCC [U20A U38A] to GGCAGAGCUCAACACAGCGAGGCAAAGUGGCUGUGGCUAGACCGCC [U20A U43C], the self-cleavage falls from 0.43 to 0.13.

Going from GGCAGAGCUCAACACAGCGAGGCAAAGUGGCUGUGGCUAGACAGCC [U20A U43A] to GGCAGAGCUCAACACAGCGCCGCAAAGUGGCUGUGGCUAGACUGCC [U20C G21C], the self-cleavage rises from 0.08 to 0.39.

Compared with GGCAGAGCUCAACACAGCGCUGCAAAGUGGCUGUGGCUAGACUGCC [U20C G21U], GGCAGAGCUCAACACAGCGCAGCAAAGUGGCUGUGGCUAGACUGCC [U20C G21A] is higher in self-cleavage: 0.45 for the first, 0.8 for the second.

Going from GGCAGAGCUCAACACAGCGCGGCCAAGUGGCUGUGGCUAGACUGCC [U20C A24C] to GGCAGAGCUCAACACAGCGCGGCUAAGUGGCUGUGGCUAGACUGCC [U20C A24U], the self-cleavage rises from 0.31 to 0.67.

Compared with GGCAGAGCUCAACACAGCGCGGCGAAGUGGCUGUGGCUAGACUGCC [U20C A24G], GGCAGAGCUCAACACAGCGCGGAAAAGUGGCUGUGGCUAGACUGCC [U20C C23A] is higher in self-cleavage: 0.44 for the first, 0.49 for the second.

Compared with GGCAGAGCUCAACACAGCGCGGGAAAGUGGCUGUGGCUAGACUGCC [U20C C23G], GGCAGAGCUCAACACAGCGCGGUAAAGUGGCUGUGGCUAGACUGCC [U20C C23U] is higher in self-cleavage: 0.44 for the first, 0.61 for the second.

Going from GGCAGAGCUCAACACAGCGCGGCAAAGUGGCUGUGGGUAGACUGCC [U20C C37G] to GGCAGAGCUCAACACAGCGCGGCAAAGUGGCUGUGGUUAGACUGCC [U20C C37U], the self-cleavage falls from 0.23 to 0.06.

Going from GGCAGAGCUCAACACAGCGCGGCAAAGUGGCUGUGGAUAGACUGCC [U20C C37A] to GGCAGAGCUCAACACAGCGAGGCAAAGUGGCUGUAGCUAGACUGCC [U20A G35A], the self-cleavage rises from 0.04 to 0.1.

Compared with GGCAGAGCUCAACACAGCGAGGCAAAGUGGCUGUCGCUAGACUGCC [U20A G35C], GGCAGAGCUCAACACAGCGAGGCAAAGUGGCUGUUGCUAGACUGCC [U20A G35U] is higher in self-cleavage: 0.05 for the first, 0.08 for the second.

First: GGCAGAGCUCAACACAGCGAGGCAAAGGGGCUGUGGCUAGACUGCC [U20A U28G]
Second: GGCAGAGCUCAACACAGCGAGGCAAAGAGGCUGUGGCUAGACUGCC [U20A U28A]
The self-cleavage of the first is lower: 0.28 for the first, 0.55 for the second.

Going from GGCAGAGCUCAACACAGCGAGGCAAAGCGGCUGUGGCUAGACUGCC [U20A U28C] to GGCAGAGCUCAACACAGCGAGGCAAAGUGUCUGUGGCUAGACUGCC [U20A G30U], the self-cleavage rises from 0.67 to 0.93.

Going from GGCAGAGCUCAACACAGCGAGGCAAAGUGCCUGUGGCUAGACUGCC [U20A G30C] to GGCAGAGCUCAACACAGCGAGGCAAAGUGACUGUGGCUAGACUGCC [U20A G30A], the self-cleavage falls from 0.68 to 0.62.
